Experimental data published in US20250346638.

System: TNF ATF 3 (synthetic construct)
Experiment: cell_activity
Settings: TNF ELISA about 100 pg/mL with CD3/CD28 Dynabeads vs shock; about 3-fold with stimulation cocktail and BFA (FIG. 15)

Chain of TNF ATF 3 (synthetic construct) (chain, as listed by the source): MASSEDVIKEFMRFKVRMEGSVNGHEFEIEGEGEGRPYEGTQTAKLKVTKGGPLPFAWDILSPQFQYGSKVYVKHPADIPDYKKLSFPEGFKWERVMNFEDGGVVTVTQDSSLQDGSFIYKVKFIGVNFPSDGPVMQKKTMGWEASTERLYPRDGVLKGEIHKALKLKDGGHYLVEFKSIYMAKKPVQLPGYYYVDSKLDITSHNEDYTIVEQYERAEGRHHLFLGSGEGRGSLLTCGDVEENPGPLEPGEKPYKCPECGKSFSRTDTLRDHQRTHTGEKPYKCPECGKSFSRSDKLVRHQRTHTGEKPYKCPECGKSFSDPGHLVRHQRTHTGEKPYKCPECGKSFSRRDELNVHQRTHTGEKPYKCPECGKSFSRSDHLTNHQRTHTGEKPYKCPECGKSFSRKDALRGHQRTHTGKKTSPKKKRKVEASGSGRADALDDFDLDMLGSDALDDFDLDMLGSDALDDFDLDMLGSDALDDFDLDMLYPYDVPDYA

TNF promoter ATF 3 target
activity: 5 fold
